In PMC8995368 (Structure (London, England : 1993), 2022):

Target: the molecule itself
Test: crystal structure

Row | Protein | stoichiometry N
1 | Myxococcus xanthus encapsulin cargo protein EncC (ferritin-like protein) (natural protein, M. xanthus) MPQTNPFHSLVPRKMTDTELARSIRLNIEAELDAINLYAAHIDATDNEDAKAILQHVMDEEREHAALFWELIARLDPEQAAHAKEAVEKYRLITSGASHEAVEAVGKEGAAPSPADVTPEKRLTVGSLRR | 10
2 | Myxococcus xanthus encapsulin cargo protein EncB (ferritin-like protein) (natural protein, M. xanthus, UniProt Q1D6H3 1-158, looked up) MAGPPDSDLDDVARIRLVLARELETINEYEAYARASSNPEVRAFFQHLAAEEKEHVSEAVHMLRMLDSGQNDHFAKPFVPGHFQAAEAPAPATVHVPTPDGPAFSVNGRNGRLPSEPPTSLPPQRLLYGLPAPPPAVESHPLTVGSLRRGGGGSGSGR | 10
